Kd, fold lower affinity than without competitor (with 5 μM motif-2) and fold lower affinity than without competitor (with 10 μM motif-2) data for two molecules are collected here from article PMC5915679.

In the assay the target is human Argonaute-2 (human) (UniProt Q9UKV8). Nature of the assay: ITC.

Take VNRTDLDPRVLSNSGWGQTPIKQNTAWDTETSPRGE (domain or fragment) [hGW182 (TNRC6A) motif-1]: the dissociation constant (Kd) turned out to be 118 nM.
TVDNGTSAWGKPIDSGPSWGEP [hGW182 (TNRC6A) hook motif] displayed a dissociation constant Kd of 234 nM, a fold lower affinity than without competitor (with 5 μM motif-2) of 7 fold and a fold lower affinity than without competitor (with 10 μM motif-2) of 15 fold.

The Kd is the free concentration of one partner at which half of the binding sites on the other are occupied at equilibrium, for simple one-to-one binding. A higher Kd goes with lower affinity.
